Experimental data: US20240083958A1, “G PROTEIN PEPTIDOMIMETICS” (VRIJE UNIVERSITEIT BRUSSEL, priority 2020, published 2024)
Where two headings read alike, the source gives them in different places. Blank lines part the entries; values can stand above or below the binder they belong to. Bridge positions count the residues as written; N and C are the ends. Square brackets hold non-standard residues; d marks the D form. Primed or numbered codes have the meaning given here. Azk = residue with azidated side chain, clicked to Pra; Pra′ = residue with alkynyl side chain, clicked to Azk; R8 = C=CCCCCCC[C@@](C)(N)C(=O)O; Cha = N[C@@H](CC1CCCCC1)C(=O)O; R5 = C=CCCC[C@@](C)(N)C(=O)O; S5 = C=CCCC[C@](C)(N)C(=O)O

What was measured:
Assay in all cases: cell-based or functional assay
human β2AR [1] = target: T1, human β2AR (human, UniProt P07550 2-365)
human β2AR [2] = target: T1, human β2AR; remark: listed apart in the source
[3] = target: dopamine 1 receptor (D1R) (UniProt P21728 1-446, limits assumed)
human β2AR [4] = target: T1, human β2AR; remark: listed apart in the source
human β2AR [5] = target: T1, human β2AR; remark: listed apart in the source
human β2AR [6] = target: T1, human β2AR; remark: listed apart in the source
human β2AR [7] = target: T1, human β2AR; remark: listed apart in the source
human β2AR [8] = target: T1, human β2AR; remark: listed apart in the source
human β2AR [9] = target: T1, human β2AR; remark: listed apart in the source
human β2AR [10] = target: T1, human β2AR; remark: listed apart in the source
human β2AR [11] = target: T1, human β2AR; remark: listed apart in the source
human β2AR [12] = target: T1, human β2AR; remark: listed apart in the source
human β2AR [13] = target: T1, human β2AR; remark: listed apart in the source

Sequence of dopamine 1 receptor (D1R) (P21728 whole entry): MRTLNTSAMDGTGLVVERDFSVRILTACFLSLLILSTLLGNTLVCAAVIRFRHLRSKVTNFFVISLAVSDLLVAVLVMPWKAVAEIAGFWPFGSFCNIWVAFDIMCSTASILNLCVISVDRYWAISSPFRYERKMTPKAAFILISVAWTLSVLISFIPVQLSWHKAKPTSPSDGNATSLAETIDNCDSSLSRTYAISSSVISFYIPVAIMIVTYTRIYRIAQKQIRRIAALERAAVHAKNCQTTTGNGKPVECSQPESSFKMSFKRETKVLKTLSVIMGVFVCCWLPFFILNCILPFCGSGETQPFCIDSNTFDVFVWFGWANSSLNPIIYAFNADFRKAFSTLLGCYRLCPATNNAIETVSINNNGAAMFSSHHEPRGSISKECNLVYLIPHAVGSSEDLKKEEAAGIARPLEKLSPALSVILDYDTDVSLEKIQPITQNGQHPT

Shift (averaged) (human β2AR [1]): 4 | IC50 (nM) of isoproterenol, [3H]-DHA RLA, peptidomimetic present (human β2AR [2]): 202 nM | Shift (human β2AR [2]): 4
B1: compound 4 (peptide)
peptide: FNDCRDEIQRKHLRQYELL
HELM: PEPTIDE1{F.N.D.C.R.D.E.I.Q.R.K.H.L.R.Q.Y.E.L.L}$PEPTIDE1,PEPTIDE1,7:R3-11:R3$$$V2.0
SMILES: CC[C@H](C)[C@@H]1NC(=O)[C@@H](NC(=O)[C@H](CC(=O)O)NC(=O)[C@H](CCCNC(=N)N)NC(=O)[C@H](CS)NC(=O)[C@H](CC(=O)O)NC(=O)[C@H](CC(N)=O)NC(=O)[C@@H](N)Cc2ccccc2)CCC(=O)NCCCC[C@@H](C(=O)N[C@@H](Cc2c[nH]cn2)C(=O)N[C@@H](CC(C)C)C(=O)N[C@@H](CCCNC(=N)N)C(=O)N[C@@H](CCC(N)=O)C(=O)N[C@@H](Cc2ccc(O)cc2)C(=O)N[C@@H](CCC(=O)O)C(=O)N[C@@H](CC(C)C)C(=O)N[C@@H](CC(C)C)C(=O)O)NC(=O)[C@H](CCCNC(=N)N)NC(=O)[C@H](CCC(N)=O)NC1=O

Shift (averaged) (human β2AR [1]): 7 | IC50 (nM) of isoproterenol, [3H]-DHA RLA, peptidomimetic present (human β2AR [7]): 116 nM | Shift (human β2AR [7]): 7
B3: compound 11 (peptide)
peptide: Ac-FNDCRD[Pra′]IQR[Azk]HLRQYELL-OH
modifications: triazole 7-11

IC50 (nM) of isoproterenol, [3H]-DHA RLA, peptidomimetic present (human β2AR [8]): 417 nM | Shift (human β2AR [8]): 2 | Shift (averaged) (human β2AR [1]): 2
B5: compound 7 (peptide)
peptide: H-FNDCRD[S5]IQR[S5]HLRQYELL-OH
modifications: staple 7-11
SMILES: CC[C@H](C)[C@@H]1NC(=O)[C@@](C)(NC(=O)[C@H](CC(=O)O)NC(=O)[C@H](CCCNC(=N)N)NC(=O)[C@H](CS)NC(=O)[C@H](CC(=O)O)NC(=O)[C@H](CC(N)=O)NC(=O)[C@@H](N)Cc2ccccc2)CCCC=CCCC[C@@](C)(C(=O)N[C@@H](Cc2c[nH]cn2)C(=O)N[C@@H](CC(C)C)C(=O)N[C@@H](CCCNC(=N)N)C(=O)N[C@@H](CCC(N)=O)C(=O)N[C@@H](Cc2ccc(O)cc2)C(=O)N[C@@H](CCC(=O)O)C(=O)N[C@@H](CC(C)C)C(=O)N[C@@H](CC(C)C)C(=O)O)NC(=O)[C@H](CCCNC(=N)N)NC(=O)[C@H](CCC(N)=O)NC1=O

IC50 (nM) of isoproterenol, [3H]-DHA RLA, peptidomimetic present (human β2AR [8]): 373 nM | Shift (human β2AR [8]): 2 | Shift (averaged) (human β2AR [1]): 3
B6: compound 8 (peptide)
peptide: Ac-FNDCRD[S5]IQR[S5]HLRQYELL-OH
modifications: staple 7-11

IC50 (nM) of A-77636, [3H]-SCH23390 RLA, compound 42 at 10 µM [3]: 0.41 nM | IC50 (nM) of isoproterenol, [3H]-DHA RLA, peptidomimetic present (human β2AR [12]): 27.4 nM | Shift (human β2AR [12]): 42 | Shift (averaged) (human β2AR [4]): 49
B10: compound 42 (peptide)
peptide: Ac-KKKFN[Pra′]CRD[Azk]IQRMHLRQYELL-OH
modifications: triazole 6-10

IC50 (nM) of isoproterenol, [3H]-DHA RLA, peptidomimetic present (human β2AR [13]): 312 nM | Shift (human β2AR [13]): 3 | Shift (averaged) (human β2AR [1]): 3
B13: compound 13 (peptide)
peptide: Ac-FNDCRDIIQR[R5]HL[S5]QYELL-OH
modifications: staple 11-14
SMILES: CC[C@H](C)[C@H](NC(=O)[C@H](CC(=O)O)NC(=O)[C@H](CCCNC(=N)N)NC(=O)[C@H](CS)NC(=O)[C@H](CC(=O)O)NC(=O)[C@H](CC(N)=O)NC(=O)[C@H](Cc1ccccc1)NC(C)=O)C(=O)N[C@H](C(=O)N[C@@H](CCC(N)=O)C(=O)N[C@@H](CCCNC(=N)N)C(=O)N[C@]1(C)CCCC=CCCC[C@@](C)(C(=O)N[C@@H](CCC(N)=O)C(=O)N[C@@H](Cc2ccc(O)cc2)C(=O)N[C@@H](CCC(=O)O)C(=O)N[C@@H](CC(C)C)C(=O)N[C@@H](CC(C)C)C(=O)O)NC(=O)[C@H](CC(C)C)NC(=O)[C@H](Cc2c[nH]cn2)NC1=O)[C@@H](C)CC

Further lines, the binder ahead of its results:

B2: compound 51 (peptide)
peptide: Ac-KKKFN[Pra′]CRD[Azk]IQRMHLRQYE[Cha]L-OH
modifications: triazole 6-10
IC50 (nM) of A-77636, [3H]-SCH23390 RLA, compound 51 at 10 µM [3]: 0.25 nM | Shift (averaged) (human β2AR [4]): 400 | Fraction HI (%) (human β2AR [5]): 83% | IC50 (nM) of isoproterenol, [3H]-DHA RLA, peptidomimetic present (human β2AR [5]): 2.8 nM | Shift (human β2AR [5]): 580 | IC50 (nM) of isoproterenol, [3H]-DHA RLA, compound 51 at 1 µM (human β2AR [6]): 56.4 nM | IC50 (nM) of isoproterenol, [3H]-DHA RLA, compound 51 at 10 µM (human β2AR [6]): 6.7 nM | IC50 (nM) of isoproterenol, [3H]-DHA RLA, compound 51 at 50 µM (human β2AR [6]): 6.9 nM | IC50 (nM) of isoproterenol, [3H]-DHA RLA, compound 51 at 100 µM (human β2AR [6]): 3.4 nM

B4: compound 10 (peptide)
peptide: H-FNDCRD[Pra′]IQR[Azk]HLRQYELL-OH
modifications: triazole 7-11
Shift (averaged) (human β2AR [1]): 7 | IC50 (nM) of isoproterenol, [3H]-DHA RLA, peptidomimetic present (human β2AR [7]): 122 nM | Shift (human β2AR [7]): 7

B7: compound 5 (peptide)
peptide: Ac-FNDCRDEIQRKHLRQYELL-OH
modifications: lactam 7-11
Shift (averaged) (human β2AR [1]): 4 | IC50 (nM) of isoproterenol, [3H]-DHA RLA, peptidomimetic present (human β2AR [2]): 197 nM | Shift (human β2AR [2]): 4

B8: compound 6 (peptide)
peptide: Ac-FNDCRD[S5]IQR[S5]HLRQYELL-OH
modifications: bridges not given here
IC50 (nM) of isoproterenol, [3H]-DHA RLA, peptidomimetic present (human β2AR [8]): 104 nM | Shift (human β2AR [8]): 8 | Shift (averaged) (human β2AR [1]): 9

B9: compound 63 (peptide)
peptide: FNDCRDIIQRMHLRQYEXL
HELM: PEPTIDE1{[ac].F.N.D.C.R.D.I.I.Q.R.M.H.L.R.Q.Y.E.[Cha].L}$$$$V2.0
SMILES: CC[C@H](C)[C@H](NC(=O)[C@H](CC(=O)O)NC(=O)[C@H](CCCNC(=N)N)NC(=O)[C@H](CS)NC(=O)[C@H](CC(=O)O)NC(=O)[C@H](CC(N)=O)NC(=O)[C@H](Cc1ccccc1)NC(C)=O)C(=O)N[C@H](C(=O)N[C@@H](CCC(N)=O)C(=O)N[C@@H](CCCNC(=N)N)C(=O)N[C@@H](CCSC)C(=O)N[C@@H](Cc1c[nH]cn1)C(=O)N[C@@H](CC(C)C)C(=O)N[C@@H](CCCNC(=N)N)C(=O)N[C@@H](CCC(N)=O)C(=O)N[C@@H](Cc1ccc(O)cc1)C(=O)N[C@@H](CCC(=O)O)C(=O)N[C@@H](CC1CCCCC1)C(=O)N[C@@H](CC(C)C)C(=O)O)[C@@H](C)CC
IC50 (nM) of A-77636, [3H]-SCH23390 RLA, compound 63 at 10 µM [3]: 0.55 nM | IC50 (nM) of isoproterenol, [3H]-DHA RLA, peptidomimetic present (human β2AR [9]): 3.96 nM | Shift (human β2AR [9]): 198 | Shift (averaged) (human β2AR [4]): 203 | IC50 (nM) of isoproterenol, [3H]-DHA RLA, peptidomimetic present (human β2AR [10]): 6.88 nM | Shift (human β2AR [10]): 118 | Fraction HI (%) (human β2AR [11]): 81% | IC50 (nM) of isoproterenol, [3H]-DHA RLA, peptidomimetic present (human β2AR [11]): 7.3 nM | Shift (human β2AR [11]): 217

B11: compound 9 (peptide)
peptide: FNDCRDXIQRXHLRQYELL
HELM: PEPTIDE1{[ac].F.N.D.C.R.D.[C#CC[C@H](N[*:1])C(=O)[*:2]].I.Q.R.[[N-]=[N+]=NCCCC[C@H](N[*:1])C(=O)[*:2]].H.L.R.Q.Y.E.L.L}$$$$V2.0
SMILES: C#CC[C@H](NC(=O)[C@H](CC(=O)O)NC(=O)[C@H](CCCNC(=N)N)NC(=O)[C@H](CS)NC(=O)[C@H](CC(=O)O)NC(=O)[C@H](CC(N)=O)NC(=O)[C@H](Cc1ccccc1)NC(C)=O)C(=O)N[C@H](C(=O)N[C@@H](CCC(N)=O)C(=O)N[C@@H](CCCNC(=N)N)C(=O)N[C@@H](CCCCN=[N+]=[N-])C(=O)N[C@@H](Cc1c[nH]cn1)C(=O)N[C@@H](CC(C)C)C(=O)N[C@@H](CCCNC(=N)N)C(=O)N[C@@H](CCC(N)=O)C(=O)N[C@@H](Cc1ccc(O)cc1)C(=O)N[C@@H](CCC(=O)O)C(=O)N[C@@H](CC(C)C)C(=O)N[C@@H](CC(C)C)C(=O)O)[C@@H](C)CC
Shift (averaged) (human β2AR [1]): 4 | IC50 (nM) of isoproterenol, [3H]-DHA RLA, peptidomimetic present (human β2AR [7]): 211 nM | Shift (human β2AR [7]): 4

B12: compound 14 (peptide)
peptide: Ac-FNDCRD[R8]IQRMHL[S5]QYELL-OH
modifications: staple 7-14
SMILES: CC[C@H](C)[C@@H]1NC(=O)[C@](C)(NC(=O)[C@H](CC(=O)O)NC(=O)[C@H](CCCNC(=N)N)NC(=O)[C@H](CS)NC(=O)[C@H](CC(=O)O)NC(=O)[C@H](CC(N)=O)NC(=O)[C@H](Cc2ccccc2)NC(C)=O)CCCCCCC=CCCC[C@@](C)(C(=O)N[C@@H](CCC(N)=O)C(=O)N[C@@H](Cc2ccc(O)cc2)C(=O)N[C@@H](CCC(=O)O)C(=O)N[C@@H](CC(C)C)C(=O)N[C@@H](CC(C)C)C(=O)O)NC(=O)[C@H](CC(C)C)NC(=O)[C@H](Cc2c[nH]cn2)NC(=O)[C@H](CCSC)NC(=O)[C@H](CCCNC(=N)N)NC(=O)[C@H](CCC(N)=O)NC1=O
IC50 (nM) of isoproterenol, [3H]-DHA RLA, peptidomimetic present (human β2AR [13]): 433 nM | Shift (human β2AR [13]): 2 | Shift (averaged) (human β2AR [1]): 2
